Assay results published in US20240352069A1, “SYNTHETIC PEPTIDE, AND COSMETIC COMPOSITION OR PHARMACEUTICAL COMPOSITION AND APPLICATION THEREOF” (SHENZHEN WINKEY TECHNOLOGY CO., LTD., priority 2021, published 2024).

Legend:
[1] = system: HaCaT cells; assay: Cell proliferation experiment (MTT), HaCaT; assay type: cell-based, human; settings: 24 hours
From the text: Human keratinocytes (HaCaT) were purchased from the Kunming Cell Bank of the Type Culture Collection Committee of the Chinese Academy of Sciences, and mouse skin fibroblasts (NIH3T3) were purchased from the Shanghai Cell Bank of the Type Culture Collection Committee of the Chinese Academy of Sciences.
• a) Take cells in good condition in exponential growth phase, add 0.25% trypsin digestion solution, digest to make adherent cells fall off, count 1-4×10^5 cells/mL, and make cell suspension; • b) Appropriately dilute 2000 cells/well of the cell suspension and inoculate it on a 96-well plate at 200 μL/well, and culture it in a constant temperature CO2 incubator for 24 hours. • c) Change the medium, add the sample to be tested, 20 μL/well, and incubate for 24 hours; • d) Add the MTT reagent into the 96-well plate, 20 μL/well, and react in the incubator for 4 hours; • e) Aspirate the supernatant, add DMSO, 150 μL/well, and shake on a plate shaker for 5 minutes; • f) After 5 minutes, use a microplate reader to read the reference OD values at 490 nm and 630 nm wavelengths, and calculate the cell viability:
MTT method is a method to detect cell survival and growth. The measured OD value is directly proportional to cell activity. The larger the OD value, the higher the cell activity.

[2] = system: HaCaT cells; assay: Promoting cell adhesion test (MTT after three-dimensional force); assay type: cell-based, human; settings: 12.5, 25, 50, 100 ppm coated plate, vs normal control group
Protocol: Human keratinocytes (HaCaT) were purchased from the Kunming Cell Bank of the Type Culture Collection Committee of the Chinese Academy of Sciences.
Dissolve with PBS solution.
The cryopreserved HaCaT human cuticle cells were cultured, subcultured at a ratio of 1:2 to about 5 passages, and the cells with better growth were selected as the experimental objects.
The sample to be tested was added to a 96-well plate at a rate of 20 μL/well, and dried overnight in a constant temperature oven at 37° C. […] Set the detection wavelength to 490 nm, the reference wavelength to 630 nm, and use a microplate reader to read the OD value.
By selecting HaCaT cells, plate them in a drug-coated 96-well plate, and after incubation and a period of three-dimensional force, the cells with strong adhesion can be maintained on the 96-well plate. By performing MTT quantitative analysis on the live cells on the plate, that is, the effect of the drug on cell adhesion can be evaluated to determine whether the peptide of the present invention can improve cell elasticity. After three-dimensional force action, the more living cells remained on the 96-well plate, the greater the measured OD value, indicating the stronger the adhesion of the cells.

[3] = system: TNF-α; assay: Anti-inflammatory repair experiment, LPS-stimulated RAW264.7 cells, ELISA TNF-α; assay type: cell-based, mouse
From the text: Mouse mononuclear macrophages (RAW264.7 cells).
Peptide (2), tested at a concentration of 100 ppm.
• a) Take RAW264.7 cells in good exponential growth phase, add 0.25% trypsin digestion solution, digest to make adherent cells fall off, count 1-4×10^6 cells/mL, and make cell suspension; • b) Appropriately dilute 100,000 cells/well of cell suspension and inoculate it on a 6-well plate, and establish an LPS-stimulated inflammation model when the cells reached about 80% confluent. Set blank control group (control), LPS group, dexamethasone group (DXM), polypeptide group. Add 1000 μL culture medium to the blank control group; add 200 ng/mL LPS to the LPS group, add culture medium to 1000 μL; add 200 ng/mL LPS and 50 ng/mL dexamethasone to the dexamethasone group, add culture medium to 1000 μL; add 200 ng/mL LPS and peptide (2) to the polypeptide group, add culture medium to 1000 μL (final test concentration of peptide is 100 ppm). […] The OD value of each well was sequentially measured at 450 nm with a microplate reader within 15 min after the reaction was terminated. […]

[4] = Stability of aqueous solutions (HPLC purity over time); assay type: physicochemical
Protocol: (§1) In Example 29, the HPLC chromatographic separation conditions were as follows: • Chromatographic column: Octadecyl bonded silica gel as filler 4.6*250 mm, 5 m • Mobile phase A: Acetonitrile (containing 0.09% trifluoroacetic acid) • Mobile phase B: 0.1% trifluoroacetic acid • Diluent: water • Flow rate: 1.0 ml/min; • Column temperature: 35° C.; • Detection wavelength: 215 nm; • Injection volume: 10 μl; • Running time: 32 min • Gradient elution table:
(§2) The test solution: Take an appropriate amount of this product and add water to dissolve and dilute to make a solution containing 1 mg per 1 ml.

[5] = Stability of powders at 25° C. and 40° C. (HPLC purity over time)
Protocol: as §1, §2

H-Ala-Pro-Phe-Arg-Met-Gly-Ile-Met-Thr-Thr-Asn-OH (H-APFRMGIMTTN-OH) [Peptide (2)]
impact on the activity of HaCaT cells compared among peptides (1)-(5) ([1]; 12.5-100 ppm): greater impact on the activity of HaCaT cells
effect on the activity of HaCaT cells (MTT) ([1]; 12.5 ppm-100 ppm, vs PBS blank control): could both improve the activity of HaCaT cells, promote their proliferation
adhesion ability of HaCaT cells [2]: could improve the adhesion ability of HaCaT cells
anti-inflammatory effect compared with dexamethasone ([3]; 100 ppm vs 50 ng/mL dexamethasone, TNF-α, IL-6 and IL-8): equivalent to the positive drug dexamethasone
expression of TNF-α ([3]; 100 ppm, 200 ng/mL LPS, 48 h, vs LPS group): significantly down-regulated
aqueous solution (purity) ([4]; Day 8 at room temperature): 99.122%
aqueous solution (purity) ([4]; Day 18 at room temperature): 98.045%
aqueous solution (purity) ([4]; Day 18 at room temperature, listed as peptide (2)): did not change significantly
aqueous solution (purity) ([4]; Solution, Day 0): 99.291%
powder (purity) ([5]; 25° C., Day 20): 99.146%
powder (purity) ([5]; 40° C., Day 20, listed as Peptide(2)): 98.583%
powder (purity) ([5]; 40° C., Day 20, listed as peptide (2)): remained unchanged
powder (purity) ([5]; powder, Day 0): 99.291%
